Test results as given in paper doi:10.1101/2024.12.09.627633 (bioRxiv, 2024).

Molecular target: the molecule itself
Assay: thioflavin T fluorescence of in vitro polymerisation; CAF domains 30 uM polymerised at 37 C with shaking at 200 rpm; ThT added at each time point; excitation 444 nm, emission 480 nm

B1: CAF domain (residues 148-223) of G175S human PMEL (domain or fragment, UniProt P40967 148-223, looked up)
chain: SFVYVWKTWGQYWQVLGGPVSGLSIGTSRAMLGTHTMEVTVYHRRGSRSYVPLAHSSSAFTITDQVPFSVSVSQLR
notes: PMEL, human, CAF (core amyloid-forming) domain, residues 148-223, with the G175S mutation linked to pigment dispersion syndrome; Polymerised in vitro in 150 mM sodium acetate pH 4.4 into two-protofilament fibrils; also called G175S CAF domain; G175S mutant; source: E. coli BL21 (DE3), pET24a, inclusion bodies, purified (Ni-NTA in 8M urea)
In the case of B1, the “fold final yield of polymerized amyloids against the wild type” value is reported as roughly 4 fold and the “fold rate of polymerisation against the wild type” value is reported as roughly 4 fold.
